The values that follow come from PMC10200060, “Inhibition of DAMP actions in the tumoral microenvironment using lactoferrin-glycyrrhizin conjugate for glioblastoma therapy” (Biomaterials Research, 2023).

The subject of experiment [1] is U87MG spheroid. The experiment is described as follows: GBM spheroid growth inhibition. Type of experiment: cell-based, human. The note with it: GL equivalent 50 µM, day 6 (control 294%). The procedure:
Fig. S8. GBM spheroid growth inhibition of Lf-GL. To form U87MG spheroid, cells were seeded at density of 1X10^5 cells in concave mold (StemFIT 3D; MICROFIT, Korea). After spheroids were formed, they were transferred to 24-well plate coated with 2% agarose gel. The constructed spheroids were treated with conditioned medium at 2 days interval after a washing step with PBS. (a) Morphology of U87MG spheroid treated with Lf-GL of GL equivalent concentration of 50 µM on day 0, 2, 4 and 6, respectively. Scale bar: 200 µm (b) GBM spheroids time-related volume after treated with Lf-GL of GL equivalent concentration of 50 µM. Data were expressed as mean ± S.E.M (n=9). **P <0.01 versus Control.

The target of experiment [2] is T1, human recombinant HMGB1 protein (Homo sapiens, UniProt P09429).
T1 construct: purchased Abcam
T1 sequence (P09429 1-215): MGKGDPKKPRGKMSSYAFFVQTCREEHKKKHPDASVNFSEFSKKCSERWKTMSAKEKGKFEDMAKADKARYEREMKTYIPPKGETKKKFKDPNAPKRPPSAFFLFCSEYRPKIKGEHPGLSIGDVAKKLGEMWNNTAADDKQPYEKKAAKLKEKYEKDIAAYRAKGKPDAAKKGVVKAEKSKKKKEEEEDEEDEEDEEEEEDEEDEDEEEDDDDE
The experiment is described as follows: SPR binding affinity against HMGB1. Particulars: SPR, HMGB1 immobilized; for Ka, association rate constant / Kd, dissociation rate constant: PBS pH 7.4, room temperature. On the procedure:
To confirm the binding affinity of Lf-GL to HMGB1, Surface Plasmon Resonance (SPR) was conducted at WoojungBSC (Korea). The Reichert SR7500DC system (Reichert technologies, NA, USA) and Scrubber2 software (Biologic software, FRA) were used, and a CMDH chip (Cat #: 13,206,066, Reichert technologies) was used for immobilization of the human recombinant HMGB1 protein (Abcam). HMGB1 protein was used as a ligand, and the analytes were HMGB1 antibody (Abcam), GL, Lf and Lf-GL conjugate. The immobilization buffer was S.A. (10 × 10^–3 M, pH 4.5), and the running buffer was PBS (pH 7.4). The flow rate of the analyte was 30 μL min^−1. The association and dissociation time were 3 min each, and measurements were conducted at room temperature. Results are expressed in response units (RU) over time.
Fig. S5. Binding affinity against HMGB1. Surface Plasmon Resonance (SPR) was conducted at WoojungBSC (Korea). The Reichert SR7500DC system (Reichert technologies, NA, USA) and Scrubber2 software(Biologic software, FRA) were used and the CMDH chip (Cat #: 13206066, Reichert technologies) was used for immobilization of the human recombinant HMGB1 protein (Abcam). HMGB1 protein was used as ligand and analytes were HMGB1 antibody (Abcam), GL, Lf and Lf-GL conjugate. Immobilization buffer was 10 mM S.A. (pH 4.5) and running buffer was 1× PBS. The flow rate of the analyte was 30 μL min^-1. The association and dissociation time were 3 min each and conducted at room temperature. Results are expressed in response units (RU) over time.
A general note: In SPR one partner is held on a chip, and binding of the other changes the refractive index at the surface.

B1: Lf-GL (1:4): lactoferrin-glycyrrhizin conjugate, ratio 1:4 (conjugate, UniProt P24627 20-708, looked up)
Lactotransferrin: APRKNVRWCTISQPEWFKCRRWQWRMKKLGAPSITCVRRAFALECIRAIAEKKADAVTLDGGMVFEAGRDPYKLRPVAAEIYGTKESPQTHYYAVAVVKKGSNFQLDQLQGRKSCHTGLGRSAGWIIPMGILRPYLSWTESLEPLQGAVAKFFSASCVPCIDRQAYPNLCQLCKGEGENQCACSSREPYFGYSGAFKCLQDGAGDVAFVKETTVFENLPEKADRDQYELLCLNNSRAPVDAFKECHLAQVPSHAVVARSVDGKEDLIWKLLSKAQEKFGKNKSRSFQLFGSPPGQRDLLFKDSALGFLRIPSKVDSALYLGSRYLTTLKNLRETAEEVKARYTRVVWCAVGPEEQKKCQQWSQQSGQNVTCATASTTDDCIVLVLKGEADALNLDGGYIYTAGKCGLVPVLAENRKSSKHSSLDCVLRPTEGYLAVAVVKKANEGLTWNSLKDKKSCHTAVDRTAGWNIPMGLIVNQTGSCAFDEFFSQSCAPGADPKSRLCALCAGDDQGLDKCVPNSKEKYYGYTGAFRCLAEDVGDVAFVKNDTVWENTNGESTADWAKNLNREDFRLLCLDGTRKPVTEAQSCHLAVAPNHAVVSRSDRAAHVKQVLLHQQALFGKNGKNCPDKFCLFKSETKNLLFNDNTECLAKLGGRPTYEEYLGTEYVTAIANLKKCSTSPLLEACAFLTR
modifications: glycyrrhizin conjugate 1:4
As for B1, the “Spheroid volume increase at day 6 compared to day 0” value in experiment [1] stood at 185%. For the same molecule, in experiment [2], the “KD, equilibrium dissociation constant (KD = Kd Ka^−1)” value came to 595 ± 5 nM; the “Ka, association rate constant” value is reported as “(2.66±0.02)·10^3 M^-1s^-1”; the Kd, dissociation rate constant amounted to 0.001584 ± 8e-06 s⁻¹.

B2: Lf-GL (1:15): lactoferrin-glycyrrhizin conjugate, ratio 1:15 (conjugate, UniProt P24627 20-708, looked up)
Lactotransferrin: APRKNVRWCTISQPEWFKCRRWQWRMKKLGAPSITCVRRAFALECIRAIAEKKADAVTLDGGMVFEAGRDPYKLRPVAAEIYGTKESPQTHYYAVAVVKKGSNFQLDQLQGRKSCHTGLGRSAGWIIPMGILRPYLSWTESLEPLQGAVAKFFSASCVPCIDRQAYPNLCQLCKGEGENQCACSSREPYFGYSGAFKCLQDGAGDVAFVKETTVFENLPEKADRDQYELLCLNNSRAPVDAFKECHLAQVPSHAVVARSVDGKEDLIWKLLSKAQEKFGKNKSRSFQLFGSPPGQRDLLFKDSALGFLRIPSKVDSALYLGSRYLTTLKNLRETAEEVKARYTRVVWCAVGPEEQKKCQQWSQQSGQNVTCATASTTDDCIVLVLKGEADALNLDGGYIYTAGKCGLVPVLAENRKSSKHSSLDCVLRPTEGYLAVAVVKKANEGLTWNSLKDKKSCHTAVDRTAGWNIPMGLIVNQTGSCAFDEFFSQSCAPGADPKSRLCALCAGDDQGLDKCVPNSKEKYYGYTGAFRCLAEDVGDVAFVKNDTVWENTNGESTADWAKNLNREDFRLLCLDGTRKPVTEAQSCHLAVAPNHAVVSRSDRAAHVKQVLLHQQALFGKNGKNCPDKFCLFKSETKNLLFNDNTECLAKLGGRPTYEEYLGTEYVTAIANLKKCSTSPLLEACAFLTR
modifications: glycyrrhizin conjugate 1:15
Consider B2, for which, in experiment [1], the “Spheroid volume increase at day 6 compared to day 0” value stood at 179%. Moreover, in experiment [2], the “KD, equilibrium dissociation constant (KD = Kd Ka^−1)” value was determined as 32.3 ± 0.2 nM; the “Ka, association rate constant” value is “(2.99±0.02)·10^4 M^-1s^-1”; the “Kd, dissociation rate constant” value is recorded as “(9.65±0.04)·10^-4 M^-1s^-1”.
